Measured values from the supplement of paper PMC10567573.

B1: FAM164C (parent)
chain: YPHCTGISQQDPESDSQGQGNGLF
B2: C2CD2L (parent)
chain: EPAGSLRELGVWRSLLRLRATRAG

Variants of: B1
Test: protein stability index of a GFP-peptide fusion (GPS, HEK-293T) (PSI 1-6); higher = more stable
Conditions: c terminus: a fixed tail appended
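Note: lentivirally expressed fusions sorted by FACS into six bins by GFP to DsRed ratio, PSI derived from sequencing read proportions per bin multiplied by bin number.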

Protein stability index, by site and new letter:
S14: Q 3.93, A 3.86, F 2.73, D 4.2, C 3.54, E 3.84, P 4.28, V 4.3, H 3.73, T 3.71, W 3.13, I 3.25, L 3.77, R 3.79, G 3.74, N 3.89, K 4.23, Y 3.27, M 3.4
E13: Q 3.31, W 1.9, V 3.66, S 3.08, R 2.93, Y 2.97, T 3.15
G20: W 2.35, D 4.39, S 3.79, K 3.66, M 3.9, V 3.44, F 2.56, Q 3.79, T 3.33, A 3.12, E 4.33, N 3.48, R 3.65, H 3.08, Y 2.03, L 3.11, I 3.02, P 3.59, C 3.57
N21: Q 4.07, L 3.41, Y 3.02, R 3.55, W 2.35, E 4.86, M 3.35, F 2.62, G 3.5, H 3.75, S 3.78, T 4.04, I 3.25, C 3.65, P 3.99, K 3.77, A 3.83, D 4.5, V 3.54
G22: M 2.96, K 3.96, A 3.78, E 3.76, W 2.04, V 3.73, Q 3.44, I 3.22, R 3.78, N 2.91, C 3.16, S 3.57, H 2.97, F 2.94, L 2.87, T 3.65, D 4.03, Y 3.03, P 3.95
G18: Y 3, D 3.67, K 3.5, S 3.77, I 3.32, P 3.83, N 3.58, L 3.42, H 3.74, W 2.62, A 3.83, T 3.41, V 3.32, E 4.19, R 3.83, Q 3.72, M 3.19, C 3.9, F 2.54
Q17: P 3.6, S 3.79, C 3.39, D 3.26, Y 3.02, W 2.97, M 3.8, T 3.64, E 4.4, V 3.4, L 2.96, H 3.36, R 3.71, K 3.51, I 3.42, G 3.74, A 3.88, N 4.14, F 2.81
F24: N 5.06, H 4.81, Y 3.87, R 5.01, W 2.23, T 5.13, V 4.41, I 4.82, C 4.73, Q 5, S 5.04, A 3.89, P 4.64, K 5.12, G 4.82, D 4.44, L 4.77, M 4.55, E 5
Q19: C 3.24, M 3.22, G 4.21, P 3.86, I 3.26, W 2.75, D 4.1, T 3.81, V 3.52, Y 3.36, N 3.66, E 4.21, H 3.64, L 3.3, A 3.87, F 2.88, R 3.51, K 3.85, S 3.9
S16: M 3.62, E 4.16, K 3.61, Q 3.8, F 3.13, D 4.24, N 4.18, G 3.71, W 2.76, L 2.74, H 3.78, Y 3.44, T 3.73, C 3.35, P 3.92, A 3.71, I 3.1, R 3.31, V 3.69
L23: H 4.89, G 4.99, C 4.62, T 4.71, A 4.35, E 5.27, D 4.93, Q 4.75, Y 4.26, I 3.97, K 4.76, N 4.38, F 3.15, S 4.6, W 2.97, P 4.48, V 3.87, R 4.63, M 4.21
D15: N 3.84, G 2.94, M 2.9, W 2.63, A 3.53, H 3.66, T 2.95, K 3.64, L 2.8, Q 3.44, V 3.51, R 3.54, F 2.94, I 2.9, C 2.79, S 3.73, P 3.46, E 4.07, Y 3.23

Variants of: B2
Test: as above
Conditions: c terminus: a fixed tail appended

Protein stability index, by site and new letter:
S5: C 2.36, V 2.04, E 3.05, D 2.56, W 1.82, R 2.03, Y 2.73, F 1.21, A 2.31
A3: F 1.47, V 2.77, E 2.65, I 2.84, M 2.19, L 1.59, T 2.93, K 2.04, P 1.63, W 1.97
E1: F 2.41, R 2.25, N 2.09, M 1.91, I 1.91, T 1.84, P 2.25, L 2.31
W12: T 4.02, D 1.9, M 2.42, S 4.37, Q 3.87, E 3.84, A 3.02, P 3.7, C 3.48
E8: N 3, F 2.9, I 1.57, M 1.73, P 2.93, S 2.49, R 2.06, D 3.43, T 2.1
G4: L 1.97, Y 3.48, P 3.02, M 2.39, Q 3.42, F 2.49, S 2.4, N 1.98, D 3.19, E 3.52, T 2.4, I 2.07, C 2.04
V11: A 2.61, D 3.74, L 2.17, T 2.95, K 3.37, I 2.5, Y 2.21, R 2.25, N 3.27, H 3.11
P2: Y 2.04, H 1.42, E 2.5, A 2.08, T 1.93, R 2.41, N 1.5, G 1.1, V 1.82
L9: W 2.37, M 2.07, Y 4.48, T 2.92, F 3.97, I 1.71, C 3.04, G 3.69, S 3.16, Q 2.77, E 3.3, P 3.7
L6: C 2.17, S 2.95, T 2.83, K 2.36, W 2.39, M 2.45, I 2.2, A 3.35
R7: L 2.44, C 1.74, F 1.14, H 2.67, M 2.92, G 3.07, E 2.29, A 3.16, K 2.07, W 1.75, P 3.35, I 1.64
G10: N 4.3, W 1.67, D 2.99, T 2.9, M 1.99, H 3.78, L 2.02, I 1.86, S 3.18
